# Where two headings read alike, the source gives them in different places.
# B1: H2M3124N (antibody, V domains shown)
# VH: EIQLIESGGDMVQPGGSLRLSCAASGISLNSYEMNWVRQTPGMGLEWISHISSSGTSIYYANSVKGRFTIFRDSAKNSLLLQMNSLRAEDTAIYYCARERYDHSGYYYLGMDVWGLGTTVTVSS
# VL: DIQMTQSPSTLSASLGDRVTITCRASQNIDNWMAWYQQKVGKAPKLLIYRASTLETGVPSRFGGSGFGTEFTLTISSLQPGDFATYYCQEYNSYFRTFGQGTKVEIK
# notes: also called H2aM3124N; H1M3124N
# B2: H1H3325P (antibody, V domains shown)
# VH: EVQLVESGGGLVQPGGSLRLSCAASGFTFNSFVMSWVRQAPGKGLEWVSAISGYGGSTYYADSMKGRFTVSRDNSKNTLYLQMNSLRAEDTAVYYCAKDHKDFYASGSYFNRDYYYGMDVWGQGTTVTVSS
# VL: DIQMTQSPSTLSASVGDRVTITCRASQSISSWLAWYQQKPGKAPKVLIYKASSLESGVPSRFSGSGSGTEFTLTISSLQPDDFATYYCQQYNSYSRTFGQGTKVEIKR
# B3: H1H3335P (antibody, V domains shown)
# VH: EVQLVESGGGLVRPGGSLRLSCAASGFTFRIYAMSWVRQAPGKGLEWVSGISGSGDNTYYTDSVKGRFIISRDNSKSTLYLQMNSLRAEDTAVYYCARGWELLNYWGQGTLVTVSS
# VL: DIQMTQSPSSLSAFVGDRVTITCRASQDISNHLAWFQQKPGKVPKSLIYAASSLQSGVPSKFSGSGSGTDFTLTISSLQPEDFATYYCQQYGLYPPTFGPGTKVDIKR
# B4: H1H3339P (antibody, V domains shown)
# VH: EVQLVESGGGLVQPGGSLRLSCAVSGFTFSIYAMSWVRQAPGKGLEWVSAISGSGDKTYYADSVKGRFTISRDNSKNTLYLQMNSLRAEDTAVFYCARGWELLNYWGQGTLVTVSS
# VL: DIQMTQSPSSLSASVGDRVTITCRASLDISNFLAWFQQKPGTAPKSLIYSASSLRTGVPSKFSGSGSGTDFTLTISSLQPEDFATYYCQQYSSYPPTFGPGTKVDIKR
# Legend:
# [1] = target: T1, C-term receptor Binding Domain (CBD) of toxin A (Clostridium difficile, UniProt P16154 1848-2710); assay: SEC (Superose 6) of CBD and mAb mixture
# T1 construct: also called CBD-A; recombinant CBD of toxin A
# CBD-toxin A-Fc [2] = target: T2, CBD-toxin A-Fc (Clostridium difficile, UniProt P16154 1848-2710); assay: SPR Biacore, mAb captured, 100 nM CBD-A-Fc flowed
# T2 construct: also called CBD-A; C-term Toxin A
# [3] = target: T3, Clostridium difficile toxin A, soluble full-length (TechLab) (Clostridium difficile, UniProt P16154 1-2710); assay: cell-based or functional assay
# CBD-toxin B-Fc [4] = target: T4, CBD-toxin B-Fc (Clostridium difficile, UniProt P18177 1851-2366); assay: SPR Biacore, mAb capture and CBD-Fc capture formats
# T4 construct: also called CBD-B; C-term Toxin B
# CBD-toxin A-Fc [5] = target: T2, CBD-toxin A-Fc; assay: as above
# [6] = target: T5, Clostridium difficile toxin B, soluble full-length (TechLab) (Clostridium difficile, UniProt P18177 2-2366); assay: SPR Biacore T200, 37C, mAb capture
# T5 construct: also called tcdB
# [7] = target: T3, Clostridium difficile toxin A, soluble …; assay: SPR Biacore T200, 37C, mAb capture
# CBD-toxin A-Fc [8] = target: T2, CBD-toxin A-Fc; assay: SPR Biacore, CBD-A-Fc captured, 500 nM mAb flowed
# CBD-toxin B-Fc [9] = target: T4, CBD-toxin B-Fc; assay: SPR Biacore, CBD-B-Fc captured, 500 nM mAb flowed
# [10] = target: T3, Clostridium difficile toxin A, soluble …; assay: SPR Biacore T200, 37C, mAb capture; remark: listed apart in the source
# [11] = target: T6, C-term receptor Binding Domain (CBD) of toxin B (Clostridium difficile, UniProt P18177 1851-2366); assay: SEC (Superose 6) of CBD and mAb mixture
# T6 construct: also called CBD-B
# [12] = target: T5, Clostridium difficile toxin B, soluble …; assay: SPR Biacore T200, 37C, mAb capture; remark: listed apart in the source
# [13] = target: T5, Clostridium difficile toxin B, soluble …; assay: cell-based or functional assay
Binder,binding result [1],binding (RU) (CBD-toxin A-Fc [2]),binding result (CBD-toxin A-Fc [5]),binding (RU) (CBD-toxin A-Fc [8]),binding (RU) (CBD-toxin B-Fc [9]),binding result [11],Kd [12],T½ [12],koff [12],kon [12],"IC50, Vero cell viability (neutralization), Trial 1, 0.1 pM Toxin B [13]","IC50, Vero cell viability (neutralization), Trial 2, 0.1 pM Toxin B [13]","IC50, Vero cell viability (neutralization), Trial 3, 0.03 pM Toxin B [13]",also measured
B1,"no binding (tested: CBD at ~500 nM, CBD:Mab 1:5 and 1:20)",0 RU,no binding,29 RU,–,–,–,–,–,–,–,–,–,"IC50, Vero cell viability (neutralization), Trial 1, 32 pM Toxin A [3]: 41 pM; IC50, Vero cell viability (neutralization), Trial 2, 32 pM Toxin A [3]: 21 pM; binding result (CBD-toxin B-Fc [4]): no binding; Kd [6]: ≤ 0.00302 nM; T½ [6]: 192 h; koff [6]: ≤ 1e-06 s⁻¹; kon [6]: 331000 M⁻¹ s⁻¹; Kd [7]: 0.174 nM; T½ [7]: 58 min; koff [7]: 0.000198 s⁻¹; kon [7]: 1.14e+06 M⁻¹ s⁻¹"
B2,"no binding (tested: CBD at ~500 nM, CBD:Mab 1:5 and 1:20)",17 RU,no binding,3 RU,-8 RU,–,–,–,–,–,–,–,–,"IC50, Vero cell viability (neutralization), Trial 4, 32 pM Toxin A [3]: 33 pM; Kd [10]: 0.105 nM; T½ [10]: 209 min; koff [10]: 5.51e-05 s⁻¹; kon [10]: 527000 M⁻¹ s⁻¹"
B3,–,13 RU,no binding,5 RU,-6 RU,"no binding (tested: CBD at ~500 nM, CBD:Mab 1:5 and 1:20)",2.34 nM,28 min,0.000414 s⁻¹,177000 M⁻¹ s⁻¹,730 pM,380 pM,120 pM,–
B4,–,19 RU,no binding,2 RU,-2 RU,"no binding (tested: CBD at ~500 nM, CBD:Mab 1:5 and 1:20)",1.95 nM,22 min,0.000537 s⁻¹,276000 M⁻¹ s⁻¹,480 pM,270 pM,90 pM,–

# Source: patent publication US20160264650A1 (Regeneron, published 2016)
